Assay results: patent US20160333418A1 (SANTA MARIA BIOTHERAPEUTICS, published 2016)

T1: activin A (human, UniProt P08476 311-426)
T1 construct: also called homodimer of the polypeptide chains betaA; INHBA product
T1 sequence: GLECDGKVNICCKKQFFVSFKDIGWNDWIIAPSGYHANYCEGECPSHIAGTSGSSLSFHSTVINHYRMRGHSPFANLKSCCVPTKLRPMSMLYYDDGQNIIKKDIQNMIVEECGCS

T2: myostatin (human, UniProt O14793 267-375)
T2 construct: also called GDF-8; growth/differentiation factor 8
T2 sequence: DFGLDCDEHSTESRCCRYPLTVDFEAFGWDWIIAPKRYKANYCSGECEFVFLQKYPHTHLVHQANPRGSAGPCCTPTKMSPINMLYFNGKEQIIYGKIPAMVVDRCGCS


Legend:
[1] = biological target: GDF-11 (Homo sapiens (Human)) (UniProt O95390); experiment: cell-based or functional assay
activin A [2] = biological target: T1, activin A; experiment: KinExA solution equilibrium binding, ligand-coated beads, room temperature
Method: (§1) Solution-based equilibrium-binding assays using KinExA™ technology (Sapidyne Instruments, Inc.) were used to determine the dissociation equilibrium (KD) of ligand binding to ActRIIB-Fc polypeptides. UltraLink Biosupport beads (Pierce) was pre-coated with about 100 μg/m1 each of myostatin, GDF-11, and activin A overnight, and then blocked with BSA. 1 pM and 3 pM of ActRIIB-Fc (E28W) (SEQ ID NO: 21) and svActRIIB-Fc (E28W, S44T) (SEQ ID NO: 10) samples were incubated with various concentrations (0.7 fM to 160 pM) of myostatin, activin A, and GDF-11 respectively in sample buffer at room temperature for 8 hours before being run through the ligand-coated beads. The amount of the bead-bound soluble receptor was quantified by fluorescent (Cy5) labeled goat anti-human-Fc antibody at 1 mg/ml in superblock. The binding signal is proportional to the concentration of free soluble receptor at equilibrium with a given myostatin, activin A, or GDF-11 concentration. KD was obtained from the nonlinear regression of the competition curves using a dual-curve one-site homogeneous binding model provided in the KinEx A™ software (Sapidyne Instruments, Inc.).

myostatin [3] = biological target: T2, myostatin; experiment: as above
Method: as §1

activin A [4] = biological target: T1, activin A; experiment: cell-based or functional assay
myostatin [5] = biological target: T2, myostatin; experiment: cell-based or functional assay
[6] = biological target: GDF-11 (Homo sapiens (Human)) (UniProt O95390); experiment: KinExA solution equilibrium binding, ligand-coated beads, room temperature

Row | IC50, luciferase activity in C2C12/pMARE reporter cells, 4 nM ligand [1] [nM] | Kd (activin A [2]) [pM] | Kd (myostatin [3]) [pM] | IC50, luciferase activity in C2C12/pMARE reporter cells, 4 nM ligand (activin A [4]) [nM] | IC50, luciferase activity in C2C12/pMARE reporter cells, 4 nM ligand (myostatin [5]) [nM] | Kd [6] [pM] | Binder
1 | 2.4 | 0.2 | 0.1 | 3.2 | 0.95 | 0.1 | ActRIIB-Fc (E28W) (Fc fusion, also called ActRIIB-IgG2Fc (E28W); ActRIIB-IgG Fc (E28W)) ETRWCIYYNANWELERTNQSGLERCEGEQDKRLHCYASWRNSSGTIELVKKGCWLDDFNCYDRQECVATEENPQVYFCCCEGNFCNERFTHLPEAGGPEVTYEPPPTAPTGGGGSVECPPCPAPPVAGPSVFLFPPKPKDTLMISRTPEVTCVVVDVSHEDPEVQFNWYVDGVEVHNAKTKPREEQFNSTFRVVSVLTVVHQDWLNGKEYKCKVSNKGLPAPIEKTISKTKGQPREPQVYTLPPSREEMTKNQVSLTCLVKGFYPSDIAVEWESNGQPENNYKTTPPMLDSDGSFFLYSKLTVDKSRWQQGNVFSCSVMHEALHNHYTQKSLSLSPGK
2 | 2.4 | 0.1 | 0.1 | 3.6 | 1.07 | 0.1 | svActRIIB-Fc (E28W, S44T) (Fc fusion, also called svActRIIB-IgG2Fc (E28W, S44T); svActRIIB-IgG Fc (E28W, S44T)) ETRWCIYYNANWELERTNQTGLERCEGEQDKRLHCYASWRNSSGTIELVKKGCWLDDFNCYDRQECVATEENPQVYFCCCEGNFCNERFTHLPEAGGPEVTYEPPPTAPTGGGGSVECPPCPAPPVAGPSVFLFPPKPKDTLMISRTPEVTCVVVDVSHEDPEVQFNWYVDGVEVHNAKTKPREEQFNSTFRVVSVLTVVHQDWLNGKEYKCKVSNKGLPAPIEKTISKTKGQPREPQVYTLPPSREEMTKNQVSLTCLVKGFYPSDIAVEWESNGQPENNYKTTPPMLDSDGSFFLYSKLTVDKSRWQQGNVFSCSVMHEALHNHYTQKSLSLSPGK
